Measurements taken from PMC9482650, “Quantitative fragmentomics allow affinity mapping of interactomes” (Nature Communications, 2022).

T1: GRIP1_7, Q9Y3R0
T1 sequence (Q9Y3R0 999-1096, limits assumed, looked up): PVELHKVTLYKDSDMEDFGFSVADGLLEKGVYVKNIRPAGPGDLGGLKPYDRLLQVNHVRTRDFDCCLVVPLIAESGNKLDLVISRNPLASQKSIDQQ

T2: LIN7A, O14910
T2 sequence (O14910 103-200, limits assumed, looked up): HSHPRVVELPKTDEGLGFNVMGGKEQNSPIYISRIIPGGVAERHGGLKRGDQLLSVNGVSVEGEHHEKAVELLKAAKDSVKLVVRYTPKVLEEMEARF

T3: ARHGAP21, Q5T5U3
T3 sequence (Q5T5U3 45-169, limits assumed, looked up): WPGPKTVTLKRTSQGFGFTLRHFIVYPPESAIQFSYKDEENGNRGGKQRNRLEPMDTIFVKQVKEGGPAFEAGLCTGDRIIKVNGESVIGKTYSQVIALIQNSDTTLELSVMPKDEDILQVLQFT

T4: TX1BP3, O14907
T4 sequence (O14907 10-122, limits assumed, looked up): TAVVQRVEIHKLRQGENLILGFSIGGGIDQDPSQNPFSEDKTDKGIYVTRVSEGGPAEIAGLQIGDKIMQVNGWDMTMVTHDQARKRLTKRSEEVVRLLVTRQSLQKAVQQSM

T5: SYNJ2BP, P57105
T5 sequence (P57105 8-110, limits assumed, looked up): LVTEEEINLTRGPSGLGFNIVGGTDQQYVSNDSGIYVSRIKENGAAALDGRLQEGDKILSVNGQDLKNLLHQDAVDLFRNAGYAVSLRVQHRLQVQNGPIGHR

T6: PDZD2_2, O15018
T6 sequence (O15018 329-429, limits assumed, looked up): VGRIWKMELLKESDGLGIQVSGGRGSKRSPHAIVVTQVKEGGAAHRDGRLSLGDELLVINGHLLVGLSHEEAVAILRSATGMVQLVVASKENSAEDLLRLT

T7: HTRA3, P83110
T7 sequence (P83110 354-453, limits assumed, looked up): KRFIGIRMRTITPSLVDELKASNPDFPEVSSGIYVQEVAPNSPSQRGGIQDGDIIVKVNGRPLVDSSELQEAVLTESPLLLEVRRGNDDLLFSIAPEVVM

T8: DFNB31_2, Q9P202
T8 sequence (Q9P202 274-371, limits assumed, looked up): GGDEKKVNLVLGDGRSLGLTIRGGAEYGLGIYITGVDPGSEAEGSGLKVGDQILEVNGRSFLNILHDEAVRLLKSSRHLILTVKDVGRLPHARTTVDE


Legend:
Test in all cases: holdup assay
Parameters in all cases: key: below the threshold = too weak to quantify, mostly under pKd 3.1 to 4
Settings in all cases: plain residues with an end cap or a label only (N-terminal biotin on a linker: ado-ado)
[1] = target: GRID2IP_2, A4D2P6
Sequence of GRID2IP_2, A4D2P6 (A4D2P6 272-370): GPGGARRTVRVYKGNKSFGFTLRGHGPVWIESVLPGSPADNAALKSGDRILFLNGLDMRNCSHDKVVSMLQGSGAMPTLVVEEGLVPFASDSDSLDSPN

[2] = target: DLG5_1, Q8TDM6
Sequence of DLG5_1, Q8TDM6 (Q8TDM6 617-713): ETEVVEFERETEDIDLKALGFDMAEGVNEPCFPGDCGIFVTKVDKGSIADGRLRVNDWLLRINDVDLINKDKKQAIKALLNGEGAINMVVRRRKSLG

[3] = target: GRIP2_3, Q9C0E4
Sequence of GRIP2_3, Q9C0E4 (Q9C0E4 238-339): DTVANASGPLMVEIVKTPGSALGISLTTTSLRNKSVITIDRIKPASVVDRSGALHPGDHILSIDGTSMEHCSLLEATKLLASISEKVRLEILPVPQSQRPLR

[4] = target: T1, GRIP1_7, Q9Y3R0
[5] = target: T2, LIN7A, O14910
[6] = target: T3, ARHGAP21, Q5T5U3
[7] = target: SCRIB_2, Q14160
Sequence of SCRIB_2, Q14160 (Q14160 857-960): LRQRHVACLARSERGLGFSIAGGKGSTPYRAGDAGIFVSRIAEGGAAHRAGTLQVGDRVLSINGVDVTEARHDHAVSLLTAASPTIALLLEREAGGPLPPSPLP

[8] = target: Inadl_8, Q8NI35
Sequence of Inadl_8, Q8NI35 (Q8NI35 1425-1530): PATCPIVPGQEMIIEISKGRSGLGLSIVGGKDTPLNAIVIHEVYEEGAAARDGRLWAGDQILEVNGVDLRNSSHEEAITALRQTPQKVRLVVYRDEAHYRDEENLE

[9] = target: TJP1_2, Q07157
Sequence of TJP1_2, Q07157 (Q07157 181-274): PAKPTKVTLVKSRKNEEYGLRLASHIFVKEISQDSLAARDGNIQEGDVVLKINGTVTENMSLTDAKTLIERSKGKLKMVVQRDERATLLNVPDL

[10] = target: LNX1_2, Q8TBB1
Sequence of LNX1_2, Q8TBB1 (Q8TBB1 371-470): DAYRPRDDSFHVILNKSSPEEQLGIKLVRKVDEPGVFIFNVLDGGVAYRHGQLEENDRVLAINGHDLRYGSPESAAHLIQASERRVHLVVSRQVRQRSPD

[11] = target: FRMPD4, Q14CM0
Sequence of FRMPD4, Q14CM0 (Q14CM0 67-160): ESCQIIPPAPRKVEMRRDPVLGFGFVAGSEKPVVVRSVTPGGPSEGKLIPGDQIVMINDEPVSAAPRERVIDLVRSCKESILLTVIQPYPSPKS

[12] = target: MAGI2_3, Q86UL8
Sequence of MAGI2_3, Q86UL8 (Q86UL8 600-682): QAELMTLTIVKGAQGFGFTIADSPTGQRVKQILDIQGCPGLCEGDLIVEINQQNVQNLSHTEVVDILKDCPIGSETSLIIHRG

[13] = target: T4, TX1BP3, O14907
[14] = target: T5, SYNJ2BP, P57105
[15] = target: IL16_3, Q14005
Sequence of IL16_3, Q14005 (Q14005 1107-1207): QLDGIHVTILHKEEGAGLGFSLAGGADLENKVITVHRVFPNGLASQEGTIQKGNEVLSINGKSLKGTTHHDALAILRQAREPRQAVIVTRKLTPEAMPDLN

[16] = target: PICK1, Q9NRD5
Sequence of PICK1, Q9NRD5 (Q9NRD5 17-115): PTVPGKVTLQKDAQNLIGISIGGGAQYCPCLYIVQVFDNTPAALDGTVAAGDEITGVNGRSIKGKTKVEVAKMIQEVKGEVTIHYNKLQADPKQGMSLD

[17] = target: Inadl_10, Q8NI35
Sequence of Inadl_10, Q8NI35 (Q8NI35 1673-1763): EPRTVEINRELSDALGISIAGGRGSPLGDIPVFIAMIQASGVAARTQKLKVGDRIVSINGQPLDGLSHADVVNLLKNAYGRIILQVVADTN

[18] = target: MAGI2_5, Q86UL8
Sequence of MAGI2_5, Q86UL8 (Q86UL8 915-1017): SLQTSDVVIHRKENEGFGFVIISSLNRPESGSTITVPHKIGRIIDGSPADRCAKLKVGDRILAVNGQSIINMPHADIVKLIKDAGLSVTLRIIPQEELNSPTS

[19] = target: T6, PDZD2_2, O15018
[20] = target: T7, HTRA3, P83110
[21] = target: Inadl_5, Q8NI35
Sequence of Inadl_5, Q8NI35 (Q8NI35 673-780): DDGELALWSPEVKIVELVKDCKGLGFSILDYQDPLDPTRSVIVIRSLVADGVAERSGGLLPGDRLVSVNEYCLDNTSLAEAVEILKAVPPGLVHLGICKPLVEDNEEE

[22] = target: GORASP1, Q9BQQ3
Sequence of GORASP1, Q9BQQ3 (Q9BQQ3 1-208): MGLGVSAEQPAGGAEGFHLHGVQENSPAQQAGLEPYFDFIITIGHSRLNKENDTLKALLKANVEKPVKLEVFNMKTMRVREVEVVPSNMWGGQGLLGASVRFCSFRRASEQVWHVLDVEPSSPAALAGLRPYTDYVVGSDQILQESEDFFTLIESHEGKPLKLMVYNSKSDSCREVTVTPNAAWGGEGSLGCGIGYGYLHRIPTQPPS

[23] = target: FRMPD2_1, Q68DX3
Sequence of FRMPD2_1, Q68DX3 (Q68DX3 770-861): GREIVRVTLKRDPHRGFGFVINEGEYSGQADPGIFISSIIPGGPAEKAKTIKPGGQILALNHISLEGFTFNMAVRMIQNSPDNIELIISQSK

[24] = target: MAGI3_2, Q5TCQ9
Sequence of MAGI3_2, Q5TCQ9 (Q5TCQ9 398-503): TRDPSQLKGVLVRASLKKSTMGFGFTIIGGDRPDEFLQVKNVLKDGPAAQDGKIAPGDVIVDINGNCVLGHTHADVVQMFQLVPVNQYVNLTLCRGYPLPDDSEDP

[25] = target: Inadl_2, Q8NI35
Sequence of Inadl_2, Q8NI35 (Q8NI35 238-335): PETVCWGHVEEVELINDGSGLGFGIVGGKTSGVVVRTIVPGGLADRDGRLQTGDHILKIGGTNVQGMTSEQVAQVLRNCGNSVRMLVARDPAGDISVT

[26] = target: DLG2_2, Q15700
Sequence of DLG2_2, Q15700 (Q15700 189-283): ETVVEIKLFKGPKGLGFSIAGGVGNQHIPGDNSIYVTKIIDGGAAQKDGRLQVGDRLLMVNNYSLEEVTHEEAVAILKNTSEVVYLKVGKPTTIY

[27] = target: T8, DFNB31_2, Q9P202
[28] = target: DLG4_3, P78352
Sequence of DLG4_3, P78352 (P78352 306-403): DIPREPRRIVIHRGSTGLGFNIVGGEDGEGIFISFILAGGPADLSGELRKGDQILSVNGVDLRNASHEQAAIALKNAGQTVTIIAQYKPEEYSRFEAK

[29] = target: HTRA1, Q92743
Sequence of HTRA1, Q92743 (Q92743 360-477): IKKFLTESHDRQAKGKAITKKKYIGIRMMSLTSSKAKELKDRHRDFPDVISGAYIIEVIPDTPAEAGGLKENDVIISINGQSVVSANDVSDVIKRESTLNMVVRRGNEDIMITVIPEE

| pKd [1] | pKd [2] | pKd [3] | pKd [4] | pKd [5] | pKd [6] | pKd [7] | pKd [8] | pKd [9] | pKd [10] | pKd [11] | pKd [12] | pKd [13] | pKd [14] | pKd [15] | pKd [16] | pKd [17] | pKd [18] | pKd [19] | pKd [20] | Binder | other results |
| --- | --- | --- | --- | --- | --- | --- | --- | --- | --- | --- | --- | --- | --- | --- | --- | --- | --- | --- | --- | --- | --- |
| below the threshold | below the threshold | below the threshold | below the threshold | below the threshold | below the threshold | below the threshold | 3.91 | below the threshold | below the threshold | below the threshold | below the threshold | 3.92 | below the threshold | below the threshold | below the threshold | below the threshold | below the threshold | 5.04 | 3.79 | ASGLDKRDYV [CLDN9, O95484] | pKd [21]: below the threshold; pKd [22]: below the threshold; pKd [23]: below the threshold; pKd [24]: below the threshold; pKd [25]: below the threshold; pKd [26]: below the threshold; pKd [27]: below the threshold; pKd [28]: below the threshold; pKd [29]: 3.84 |
| 3.9 | below the threshold | below the threshold | below the threshold | below the threshold | 4.09 | 4.43 | 3.66 | below the threshold | below the threshold | below the threshold | below the threshold | 4.25 | 5.09 | below the threshold | below the threshold | below the threshold | 3.89 | 5.35 | below the threshold | PDSNPEESSV [SEMA4C, Q9C0C4] | pKd [21]: below the threshold; pKd [22]: below the threshold; pKd [23]: below the threshold; pKd [24]: 3.77; pKd [25]: below the threshold; pKd [26]: 3.85; pKd [27]: below the threshold; pKd [28]: below the threshold; pKd [29]: 3.85 |
| 4.07 | 3.66 | below the threshold | below the threshold | below the threshold | 4.07 | below the threshold | 4.02 | below the threshold | below the threshold | below the threshold | below the threshold | 3.72 | 3.72 | below the threshold | below the threshold | below the threshold | 3.95 | 5.23 | below the threshold | EWTDERQSKV [GAB3, Q8WWW8] | pKd [21]: below the threshold; pKd [22]: below the threshold; pKd [23]: below the threshold; pKd [24]: 3.6; pKd [25]: below the threshold; pKd [26]: 3.89; pKd [27]: 3.75; pKd [28]: below the threshold; pKd [29]: below the threshold |

Second part, the binder before the results:

| Binder | pKd [1] | pKd [2] | pKd [3] | pKd [4] | pKd [5] | pKd [6] | pKd [7] | pKd [8] | pKd [9] | pKd [10] | pKd [11] | pKd [12] | pKd [13] | pKd [14] | pKd [15] | pKd [16] | pKd [17] | pKd [18] | pKd [19] | pKd [20] | other results |
| --- | --- | --- | --- | --- | --- | --- | --- | --- | --- | --- | --- | --- | --- | --- | --- | --- | --- | --- | --- | --- | --- |
| NPETRDETQL [KCNT1, Q5JUK3] | 3.85 | below the threshold | below the threshold | below the threshold | below the threshold | 4.02 | 4.05 | below the threshold | below the threshold | below the threshold | 4.84 | 3.52 | 3.62 | 4.43 | below the threshold | below the threshold | below the threshold | 3.75 | 3.72 | below the threshold | pKd [21]: below the threshold; pKd [22]: below the threshold; pKd [23]: below the threshold; pKd [24]: below the threshold; pKd [25]: below the threshold; pKd [26]: below the threshold; pKd [27]: below the threshold; pKd [28]: below the threshold; pKd [29]: below the threshold |
| FTLPAESSEI [PLEKHG7, Q6ZR37] | 4.2 | below the threshold | below the threshold | below the threshold | below the threshold | below the threshold | below the threshold | below the threshold | below the threshold | below the threshold | below the threshold | below the threshold | below the threshold | 3.98 | below the threshold | 3.99 | below the threshold | below the threshold | 5.12 | below the threshold | pKd [21]: below the threshold; pKd [22]: below the threshold; pKd [23]: below the threshold; pKd [24]: below the threshold; pKd [25]: below the threshold; pKd [26]: below the threshold; pKd [27]: below the threshold; pKd [28]: below the threshold; pKd [29]: 3.52 |
